Target: Rpn10 proteasome subunit C-terminally fused with Fpr1 (strain Rpn10-FPR1) (S. cerevisiae) (UniProt P38886)
Assay: cell-based or functional assay

Sequence of Rpn10 proteasome subunit C-terminally fused with Fpr1 (strain Rpn10-FPR1) (S. cerevisiae) (P38886 other isoform, or with tags, fused parts or gaps): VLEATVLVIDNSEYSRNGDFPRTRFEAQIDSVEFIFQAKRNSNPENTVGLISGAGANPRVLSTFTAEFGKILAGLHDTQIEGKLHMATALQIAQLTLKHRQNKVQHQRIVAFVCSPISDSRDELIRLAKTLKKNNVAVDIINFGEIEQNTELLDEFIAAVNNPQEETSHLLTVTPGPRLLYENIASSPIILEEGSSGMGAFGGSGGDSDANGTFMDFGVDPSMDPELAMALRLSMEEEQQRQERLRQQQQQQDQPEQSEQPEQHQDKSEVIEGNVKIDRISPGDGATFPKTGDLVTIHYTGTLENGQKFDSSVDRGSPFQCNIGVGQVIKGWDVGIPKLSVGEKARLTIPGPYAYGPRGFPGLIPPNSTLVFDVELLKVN

half-life of reporter degradation in vitro with purified proteasomes and rapamycin (anti-HA Western): 15 min
Substance: HA epitope-tagged Tor-His3 purified from a bacterial expression system (PROTet.e133-TOR-link-HIS3HA) (from UniProt P35169 1883-2078; P06633 1-220)
